Results published in article PMC10404244, “Control of motor landing and processivity by the CAP-Gly domain in the KIF13B tail” (Nature Communications, 2023).
Numbering of substitutions follows the chain as printed. Names and notes keep the numbering of the source.

Assays:
[1] = molecular target: the molecule itself; assay: mass photometry; lower concentration(s) of the construct (KIF13B^Δtail: the lower of two; KIF13B^CG: low and intermediate), HP buffer pH 7.0, room temperature; monomer to dimer
[2] = molecular target: T1, tyrosinated microtubules polymerized from recombinant human α1A/βIII tubulin (human, UniProt Q71U36 1-451; Q13509 1-450); assay: TIRF microscopy microtubule-binding assay (standard deviation map); differentially labelled tyrosinated and detyrosinated taxol microtubules held by biotin-streptavidin in the same chamber, sfGFP motors in solution, 2 mM ATP, HP assay buffer pH 7.0; conditions: both partners purified
T1 construct: human alpha-tubulin isotype α1A, fully tyrosinated; human beta-tubulin isotype βIII; Plasmids (pFAST-Dual) were gifts from A. Roll-Mecak; also called recombinant human tubulin (fully tyrosinated); not shown: His tag (from the HisTrap purification)

[3] = molecular target: the molecule itself; assay: two-colour single-molecule TIRF microscopy; sfGFP- and mScarlet (I)-tagged KIF13BK414A co-expressed and purified together (molar ratio ~1:5 mScarlet (I): sfGFP), seen on immobilised tyrosinated and CPA-treated detyrosinated microtubules; 2 mM ATP or 2 mM ADP
[4] = molecular target: the molecule itself; assay: mass photometry; 5, 25 and 100 nM protein in HP buffer (90 mM HEPES, 10 mM PIPES, 50 mM K-acetate, 2 mM Mg-acetate, 1 mM EGTA, 10% glycerol, pH 7.0), room temperature; result told over the whole range; monomer to dimer

T1 sequence (Q71U36 whole entry, chain 1 of 2): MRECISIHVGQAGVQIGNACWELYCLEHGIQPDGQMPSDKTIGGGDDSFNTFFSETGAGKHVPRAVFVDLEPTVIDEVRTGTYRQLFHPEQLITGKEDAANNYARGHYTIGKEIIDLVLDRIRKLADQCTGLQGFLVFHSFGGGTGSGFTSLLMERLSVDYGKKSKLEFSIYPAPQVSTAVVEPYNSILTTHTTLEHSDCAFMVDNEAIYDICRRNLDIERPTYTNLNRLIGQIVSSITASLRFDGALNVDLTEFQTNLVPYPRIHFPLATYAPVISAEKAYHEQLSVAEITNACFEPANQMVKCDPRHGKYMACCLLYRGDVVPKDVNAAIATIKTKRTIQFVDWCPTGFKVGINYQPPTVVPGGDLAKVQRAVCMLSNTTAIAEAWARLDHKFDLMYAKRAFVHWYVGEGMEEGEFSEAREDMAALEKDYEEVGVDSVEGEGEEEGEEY
T1 sequence (Q13509 whole entry, chain 2 of 2): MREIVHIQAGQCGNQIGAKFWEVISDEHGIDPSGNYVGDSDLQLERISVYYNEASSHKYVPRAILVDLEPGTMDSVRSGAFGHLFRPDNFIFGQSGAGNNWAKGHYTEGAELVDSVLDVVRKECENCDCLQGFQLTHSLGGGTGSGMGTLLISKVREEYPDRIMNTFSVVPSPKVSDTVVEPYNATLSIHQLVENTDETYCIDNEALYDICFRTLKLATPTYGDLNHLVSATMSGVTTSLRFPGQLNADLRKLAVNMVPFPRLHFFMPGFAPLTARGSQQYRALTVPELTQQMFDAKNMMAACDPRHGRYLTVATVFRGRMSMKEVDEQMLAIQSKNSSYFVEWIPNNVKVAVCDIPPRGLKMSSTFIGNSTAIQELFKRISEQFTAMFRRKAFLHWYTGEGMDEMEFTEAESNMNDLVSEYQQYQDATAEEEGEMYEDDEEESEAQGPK

B1: human KIF13B tail-truncated (a.a. 1–679), C-terminal sfGFP-StrepII (domain or fragment, UniProt Q9NQT8 1-679, looked up)
chain: MGDSKVKVAVRIRPMNRRETDLHTKCVVDVDANKVILNPVNTNLSKGDARGQPKVFAYDHCFWSMDESVKEKYAGQDIVFKCLGENILQNAFDGYNACIFAYGQTGSGKSYTMMGTADQPGLIPRLCSGLFERTQKEENEEQSFKVEVSYMEIYNEKVRDLLDPKGSRQTLKVREHSVLGPYVDGLSKLAVTSYKDIESLMSEGNKSRTVAATNMNEESSRSHAVFKITLTHTLYDVKSGTSGEKVGKLSLVDLAGSERATKTGAAGDRLKEGSNINKSLTTLGLVISALADQSAGKNKNKFVPYRDSVLTWLLKDSLGGNSKTAMVATVSPAADNYDETLSTLRYADRAKHIVNHAVVNEDPNARIIRDLREEVEKLREQLTKAEAMKSPELKDRLEESEKLIQEMTVTWEEKLRKTEEIAQERQKQLESLGISLQSSGIKVGDDKCFLVNLNADPALNELLVYYLKEHTLIGSANSQDIQLCGMGILPEHCIIDITSEGQVMLTPQKNTRTFVNGSSVSSPIQLHHGDRILWGNNHFFRLNLPKKKKKAEREDEDQDPSMKNENSSEQLDVDGDSSSEVSSEVNFNYEYAQMEVTMKALGSNDPMQSILNSLEQQHEEEKRSALERQRLMYEHELEQLRRRLSPEKQNCRSMDRFSFHSPSAQQRLRQWAEEREATL
notes: KIF13B, human, a.a; 1–679; truncated after the predicted second coiled-coil, within the MBS domain; also called KIF13B^Δtail; KIF13^Δtail; source: Sf9 insect cells (baculovirus), purified (Strep-Tactin XT, gel filtration); not shown: sfGFP, C-terminal, kept
B1: binds [1]; binds [2].

B2: human KIF13B CAP-Gly fragment (a.a. 1685–1826), N-terminal sfGFP-StrepII (domain or fragment)
chain: QALASDSEEADEVPEWLREGEFVTVGAHKTGVVRYVGPADFQEGTWVGVELDLPSGKNDGSIGGKQYFRCNPGYGLLVRPSRVRRATGPVRRRSTGLRLGAPEARRSATLSGSATNLASLTAALAKADRSHKNPENRKSWAS
notes: KIF13B, human, a.a; 1685–1826: CAP-Gly domain and an ~80 residue unstructured C-terminal region; The sfGFP-StrepII tag is joined to the N-terminus of the fragment through a 3xGGGGS linker (pET28a); the methods hold here; also called KIF13B^CG; KIF13^CG; source: E. coli BL21-CodonPlus (DE3)-RIPL, purified (Strep-Tactin XT, HiTrap Q, Superdex 200); not shown: sfGFP, N-terminal, kept
B2: binds [2].

B3: KIF13B K414A, full-length human KIF13B with the point mutation K414A, C-terminal sfGFP-StrepII (natural protein, UniProt Q9NQT8 1-1826, looked up)
chain: MGDSKVKVAVRIRPMNRRETDLHTKCVVDVDANKVILNPVNTNLSKGDARGQPKVFAYDHCFWSMDESVKEKYAGQDIVFKCLGENILQNAFDGYNACIFAYGQTGSGKSYTMMGTADQPGLIPRLCSGLFERTQKEENEEQSFKVEVSYMEIYNEKVRDLLDPKGSRQTLKVREHSVLGPYVDGLSKLAVTSYKDIESLMSEGNKSRTVAATNMNEESSRSHAVFKITLTHTLYDVKSGTSGEKVGKLSLVDLAGSERATKTGAAGDRLKEGSNINKSLTTLGLVISALADQSAGKNKNKFVPYRDSVLTWLLKDSLGGNSKTAMVATVSPAADNYDETLSTLRYADRAKHIVNHAVVNEDPNARIIRDLREEVEKLREQLTKAEAMKSPELKDRLEESEKLIQEMTVTWEEALRKTEEIAQERQKQLESLGISLQSSGIKVGDDKCFLVNLNADPALNELLVYYLKEHTLIGSANSQDIQLCGMGILPEHCIIDITSEGQVMLTPQKNTRTFVNGSSVSSPIQLHHGDRILWGNNHFFRLNLPKKKKKAEREDEDQDPSMKNENSSEQLDVDGDSSSEVSSEVNFNYEYAQMEVTMKALGSNDPMQSILNSLEQQHEEEKRSALERQRLMYEHELEQLRRRLSPEKQNCRSMDRFSFHSPSAQQRLRQWAEEREATLNNSLMRLREQIVKANLLVREANYIAEELDKRTEYKVTLQIPASSLDANRKRGSLLSEPAIQVRRKGKGKQIWSLEKLDNRLLDMRDLYQEWKECEEDNPVIRSYFKRADPFYDEQENHSLIGVANVFLESLFYDVKLQYAVPIINQKGEVAGRLHVEVMRLSGDVGERIAGGDEVAEVSFEKETQENKLVCMVKILQATGLPQHLSHFVFCKYSFWDQQEPVIVAPEVDTSSSSVSKEPHCMVVFDHCNEFSVNITEDFIEHLSEGALAIEVYGHKINDPRKNPALWDLGIIQAKTRSLRDRWSEVTRKLEFWVQILEQNENGEYCPVEVISAKDVPTGGIFQLRQGQSRRVQVEVKSVQESGTLPLMEECILSVGIGCVKVRPLRAPRTHETFHEEEEDMDSYQDRDLERLRRKWLNALTKRQEYLDQQLQKLVSKRDKTEDDADREAQLLEMRLTLTEERNAVMVPSAGSGIPGAPAEWTPVPGMETHIPVIFLDLNADDFSSQDNLDDPEAGGWDATLTGEEEEEFFELQIVKQHDGEVKAEASWDSAVHGCPQLSRGTPVDERLFLIVRVTVQLSHPADMQLVLRKRICVNVHGRQGFAQSLLKKMSHRSSIPGCGVTFEIVSNIPEDAQGVEEREALARMAANVENPASADSEAYIEKYLRSVLAVENLLTLDRLRQEVAVKEQLTGKGKLSRRSISSPNVNRLSGSRQDLIPSYSLGSNKGRWESQQDVSQTTVSRGIAPAPALSVSPQNNHSPDPGLSNLAASYLNPVKSFVPQMPKLLKSLFPVRDEKRGKRPSPLAHQPVPRIMVQSASPDIRVTRMEEAQPEMGPDVLVQTMGAPALKICDKPAKVPSPPPVIAVTAVTPAPEAQDGPPSPLSEASSGYFSHSVSTATLSDALGPGLDAAAPPGSMPTAPEAEPEAPISHPPPPTAVPAEEPPGPQQLVSPGRERPDLEAPAPGSPFRVRRVRASELRSFSRMLAGDPGCSPGAEGNAPAPGAGGQALASDSEEADEVPEWLREGEFVTVGAHKTGVVRYVGPADFQEGTWVGVELDLPSGKNDGSIGGKQYFRCNPGYGLLVRPSRVRRATGPVRRRSTGLRLGAPEARRSATLSGSATNLASLTAALAKADRSHKNPENRKSWAS
notes: kinesin KIF13B, human, full length, point mutant K414A; molar ratio about 1:5 (mScarlet (I): sfGFP); also called KIF13BK414A-sfGFP; HsKIF13BK414A-sfGFP-StrepII; source: Sf9, purified (Strep-Tactin XT, gel filtration); for the two-colour assay Sf9 co-infected with the sfGFP-StrepII and the mScarlet-StrepII viruses; not shown: sfGFP, C-terminal, kept
B3: binds [3].

B4: full-length human KIF13B (wild type), C-terminal sfGFP-StrepII (natural protein)
chain: B3 chain with A414K
notes: KIF13B, human, full-length cDNA from Transomics (BC172411); Predominantly monomeric in solution, minor dimer fraction (mass photometry); also called WT KIF13B; full-length KIF13B; source: Sf9 insect cells (baculovirus), purified (Strep-Tactin XT, gel filtration); not shown: sfGFP, C-terminal, kept
B4: binds [2].

B5: full-length human KIF13B V178Q, C-terminal sfGFP-StrepII (natural protein, UniProt Q9NQT8 1-1826, looked up)
chain: B3 chain with V178Q, A414K
notes: source: Sf9 insect cells (baculovirus), purified (Strep-Tactin XT, gel filtration); not shown: sfGFP, C-terminal, kept
B5: binds [4].

B6: full-length human KIF13B K414A, C-terminal sfGFP-StrepII (natural protein, UniProt Q9NQT8 1-1826, looked up)
chain: B3 chain
notes: also called KI13B^K414A; source: Sf9 insect cells (baculovirus), purified (Strep-Tactin XT, gel filtration); not shown: sfGFP, C-terminal, kept
B6: binds [4].
